Measured values: paper PMC11329700

Target: His-tagged mouse Endophilin A1 SH3 domain (mouse) (UniProt Q62420)
Assay: ELISA; His-tagged mouse Endophilin A1 SH3 domain coated onto a 96-well plate, overlaid with increasing concentrations of GST-tagged Dyn1-PRR peptides; two experiments with four replicates each

Sequence of His-tagged mouse Endophilin A1 SH3 domain (mouse) (Q62420 290-349): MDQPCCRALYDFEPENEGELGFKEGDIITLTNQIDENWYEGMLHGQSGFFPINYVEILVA

fold weaker affinity than xA 746-864 [fold]	fold lower affinity than xA 746-864 [fold]	Substance
9	–	GST-Dyn1xA-PRR 751-798 (domain or fragment)
–	3	GST-Dyn1xB-PRR (dynamin 1xB proline-rich region, amino acids 746-851) (domain or fragment)
